Data reported in the nanobody polyreactivity screen of Harvey et al. (2022).

Test: yeast display, Sf9 membrane polyspecificity reagent, FACS + sequencing; frameworks hold sequencing errors
Procedure, shortened: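 A nanobody's polyreactivity label depends on the gate it was sorted from. Yeast display cells were stained with 10% biotinylated, detergent-solubilized Sf9 membrane reagent for 1 hour at 4 °C, enriched on streptavidin microbeads and sorted by FACS. The low and high (top ~1%) gates were set on anti-HA fluorescence for expression and streptavidin fluorescence for reagent binding.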

Sequence | polyreactivity (PSR sort gate)
QVQLVESGGGLVQAGGSLRLSCAASGFTFKYYDMGWYRQAPGKERELVAGITWDGGSTTYSDSVKGRFTISRDNAKNTVYLQMNSLKPEDTAVYYCAADVRYTSPFYYYLGAYYYWGQGTQVTVSS | low polyreactivity
QVQLVESGGGLVQTGGSLRLSCAASGSTFEYNAMGWYRQAPGKERELVAAITWTGGSRYYADSVKGRFTISRDNAKNSVYFQMNSLKPEDTAVYYCNAVSYVDIWDDRRYYYWGQGTQVTVSS | low polyreactivity
QVQLVEAGGGLVQAGGSLRLSCAASGSTFAGYAMGWYRQAPGKERELVATITYSGGSTYYADSVKGRFTISRDNAKNTVYLQMNSLKPEDTAVYYCAKKASYWWGYEYWGQGTQVTVSS | low polyreactivity
QVQLVESGGGLVQAGGSLRLSCAASGSTFVVNAMGWYRQAPGKERELVAAIRIIGGSTYYADSVKGRFTISRDNAKNTVYLQMKSLKPEDTAVYYCVYSGYFPHQSKMDYWGQGTQVTVSS | low polyreactivity
QVQLVESGGGLVQAGGSLRLSCAASGSILGLYAMGWYRQAPEKDRELVAASTWSGGSTYYADSVKGRFTISRDNAKNTVYLQMNSLKPEDTAVYYCAALARGYWVVNSLGSYDYWGQGTQVTVSS | high polyreactivity
QVQLVESGGGLVQAGGSLRLSCAASGSTIDWYGMGWYRQAPGKERELVAAINFSDGSTYYADSVKGRFTISRDNAKNTVYLQMNSLKPEDTAVYYCAAFTPSYGGRDYWGQGTQVTVSS | low polyreactivity
QVQLVESGGGLVQAGGSLRLSCAASGRIFYTNAMGWSRQAPGKERELVAVISWGGDTTYYADSVKGRFTISRDNAKNTVYLQMNSLKPEDTAVYYCNADWGPTYEIYDSWGQGTQVTVSS | low polyreactivity
QVQLVESGGGLVQAGGSLRLSCAASGLTFVKNAMGWNRQAPGKERELVAAITVSGSRTYYADSVKGRFTISRDNAKNTVYLQMNSLKPEDTGVYYCNAYPYYLVRNMDSWGQGTLVTVSS | high polyreactivity
QVQLVESRGGLVQAGGSLRLSCAASGIIFFKYAMGWYRQAPGKERELVAAISIDGSTNYADSVKGRFTISRDNAKNTVYLQMNSLKPEDTAVYYCNAKRYGFFYWQGDYWGQGTQVTVSS | low polyreactivity
QVQLVESGGGLVQAGGSLPLSCAASGRTFWAYAMGWYRQAPGKERELVAAITTSGGSTNYADSVKGRFTISRDNAKNTVYLQMNSLKPEDTAVYYCNADPTYHVVNGVGYWGQGTQVTVSS | low polyreactivity
QVQLVESGGGLVQAGGSLRLSCAASGITFVQYAMGWYRQAPGKERELVAAITSDGRTYYADSVKGRFTISRDNAKNTVYLQMNSLKREDTAVYYCAADVWRYTAYGGAYRRDYWGQGTQVTVSS | low polyreactivity
QVQLQESGVGLVQAGGSLRLSCAASGSISAVGAMGCYRQAPGQEREFAASVNWGTNTNYADSVKGRFTISRDNAKNTLYLQMNSLKPEDTAVYYCAVLPDWETRHDYWGHGTQVTVSS | low polyreactivity
QVQLVESGGGLVQAGGSLRLSCAASGITFPVYTMGWYRQAPGKERALVAAISRSGGRTYYADSVKGRFTISSDNAKNTVYLQMNSLKPEDTAVYYCAVRQATVTGGGYWGQGTQVTVSS | high polyreactivity
QVQLVESGGGLVQSRVSLRLSCAASGRTIYVNAMGWYRQAPGKEREFVATISGGGSTKYADSVKGRFTISRDNAKNTVYLQMNSLKPEDTAVYYCARRRERYTADSRGYGYWGQGTQVTVSS | low polyreactivity
QVQLVESGGVLVQAGGSLRLSCAASGSTFTDYAMGWYRQAPGKERELVAAITDSGGRTYYADSVKGRFTISRDNAKNTVYLQMNSLKPEDTAVYYCATEDDRWYYWGQGTQVTVSS | high polyreactivity
QVQLEESGGGLVQAGGSLRLSCAASGRTLQRNAMGWYRQAPGKERELVAAISWSGASTYYADSVKGRFTISRDNAKNTVYLQMTSLKPEDTAVYYCAATYIDRGNIYDYWGQGTQVTVSS | high polyreactivity
QVQLVESGGGLVQAGGSLRLSCAASGRIFTKYAMGWYRQAPGKERELVAAISSRGGSTYYADSVKGRFTISRDNAKNTVYLQMNSLKPEDTAVYYCAAGYLPRYYYTPQFDGDYWGQGTQVTVSS | high polyreactivity
QVQLVESGGGLVQAGGSLRLSCAASGLTFDYYAMGWYRQAPGKERELVAAITRRGGGTYYADSVKGRFTISRDNAKNTVYLQMNSLKPEDTAVYYCNADRRSWSALHRYDYWGQGTQVTVSS | high polyreactivity
QVQLVESGGGLVQAGGSLRLSCAASGIIFSPYAMGWYRQAPGKERELVAAISYSGGSTYYADSVKGRYTISRDNAKNSVYLQMNSLKPEETAVYYCAVFYSYYLAFMGYWDYDYWGQGTQVTVSS | low polyreactivity
QVQLVESGGGLVQAGGSLRLSCAASGRSFWAYAMGWYRQETGTERELVADITTSGGSTNYADSVKGRFTISRDNAKNTVYLQMNSLKPEDTAVYYCNADPTYHVVNCVGYWGHGTQVTVSS | low polyreactivity
QVQLVESGGGLVQAGGSLRLSCAASGSIFSGNTMGCYRQAPGKERELVAAISGRGSNTYYADSVKGRFTISRDNAKNTVYLQMNSLKPEDTAVYYCAGPWVVRRTAYDYWGQGTQVTVSS | high polyreactivity
PVQLVESGGGLVQAGGRLLLICAASGSIFTPKAMGWYRQAPGKERELVAAITSRGGSTYYADSVKGRFTISRDNAKNTFYLQMNSLKPEDTAVYYCASKPHSSKYDYWGQGTQVTVSS | low polyreactivity
